The results in this text go back to US20250320292A1 (PANDION OPERATIONS, published 2025).

As usually defined, the Kd is a measure of binding affinity in units of concentration. Read a high Kd as weaker binding. Usually koff stands for a measure of how fast the partners let go of each other. A word on the kon: it is the second-order rate constant of association. The low end stands for slower complex formation, the high end for faster complex formation.

For test [1], the target named is T1, Mouse Robo2 (mouse, UniProt Q7TPD3 22-863, limits assumed).
T1 construct: also called mRobo2
T1 sequence: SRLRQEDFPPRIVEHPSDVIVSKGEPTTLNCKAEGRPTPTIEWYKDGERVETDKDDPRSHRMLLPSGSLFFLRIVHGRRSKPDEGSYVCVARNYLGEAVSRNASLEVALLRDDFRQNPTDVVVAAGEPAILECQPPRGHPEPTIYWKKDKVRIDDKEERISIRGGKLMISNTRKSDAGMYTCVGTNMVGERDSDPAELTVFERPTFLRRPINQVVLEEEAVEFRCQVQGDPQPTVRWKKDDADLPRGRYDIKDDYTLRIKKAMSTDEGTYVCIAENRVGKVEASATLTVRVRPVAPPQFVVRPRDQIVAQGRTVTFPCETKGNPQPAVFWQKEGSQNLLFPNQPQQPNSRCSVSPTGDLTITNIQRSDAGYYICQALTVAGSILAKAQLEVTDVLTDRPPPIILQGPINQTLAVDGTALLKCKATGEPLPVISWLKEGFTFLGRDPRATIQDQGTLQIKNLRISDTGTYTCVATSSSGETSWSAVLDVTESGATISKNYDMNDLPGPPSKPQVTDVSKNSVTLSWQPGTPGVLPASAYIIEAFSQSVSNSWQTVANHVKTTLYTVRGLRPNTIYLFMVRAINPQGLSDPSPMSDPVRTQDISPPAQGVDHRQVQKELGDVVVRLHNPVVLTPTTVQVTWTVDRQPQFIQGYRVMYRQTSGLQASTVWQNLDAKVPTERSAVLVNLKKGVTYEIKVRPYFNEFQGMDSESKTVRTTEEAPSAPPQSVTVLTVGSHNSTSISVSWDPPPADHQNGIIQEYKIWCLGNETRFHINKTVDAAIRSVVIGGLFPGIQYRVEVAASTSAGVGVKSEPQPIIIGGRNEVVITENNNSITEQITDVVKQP
Briefly: BLI (Octet RED96); CDAB3 on anti-Streptavidin biosensor, mouse Robo2 titrated two-fold from 50 nM. The protocol: (§1) Anti-human Fc (for CDAB1, CDAB5, Fc-rat COL4A3) or anti-Streptavidin (for CDAB3) or HIS1K (COL4A3-His) biosensors were equilibrated in assay buffer (1% BSA in 1×PBS with 0.05% Tween-20) for 10 minutes before the experiment was setup. Immobilizing reagents were diluted to 4 μg/mL in assay buffer and 200 μL pipetted to 96 well plate. Mouse Robo2 or TAs were titrated down, two-fold dilutions (starting at 50 nM as the highest concentration, 7-point dilution). The experiment was conducted using data acquisition software version 10.0 for OCTET96 RED. Test articles were captured using anti-human Fc biosensors for 180 s. Biosensors loaded with test articles were then equilibrated in assay buffer for 120 s. Association was performed in wells with mRobo2 or TA for 180 seconds. Dissociation was performed in wells with assay buffer for 180 s.
On the technique in general: BLI is a label-free optical method that tracks binding on a fibre tip over time.

The next test has as its target recROBO2. The test is described as follows: cell-based or functional assay.
The target in test [2] is T1, Mouse Robo2. The test is described as follows: BLI (Octet RED96); CDAB1 captured on anti-human Fc biosensor, mouse Robo2 titrated two-fold from 50 nM. The procedure:
as §1

Test [3] has as its target T1, Mouse Robo2. Briefly: BLI (Octet RED96); test article captured on biosensor (method names CDAB5 on anti-human Fc, result names CDAB6), mouse Robo2 titrated from 50 nM. The procedure:
as §1

Sequence of recROBO2 (Q9HCK4 whole entry): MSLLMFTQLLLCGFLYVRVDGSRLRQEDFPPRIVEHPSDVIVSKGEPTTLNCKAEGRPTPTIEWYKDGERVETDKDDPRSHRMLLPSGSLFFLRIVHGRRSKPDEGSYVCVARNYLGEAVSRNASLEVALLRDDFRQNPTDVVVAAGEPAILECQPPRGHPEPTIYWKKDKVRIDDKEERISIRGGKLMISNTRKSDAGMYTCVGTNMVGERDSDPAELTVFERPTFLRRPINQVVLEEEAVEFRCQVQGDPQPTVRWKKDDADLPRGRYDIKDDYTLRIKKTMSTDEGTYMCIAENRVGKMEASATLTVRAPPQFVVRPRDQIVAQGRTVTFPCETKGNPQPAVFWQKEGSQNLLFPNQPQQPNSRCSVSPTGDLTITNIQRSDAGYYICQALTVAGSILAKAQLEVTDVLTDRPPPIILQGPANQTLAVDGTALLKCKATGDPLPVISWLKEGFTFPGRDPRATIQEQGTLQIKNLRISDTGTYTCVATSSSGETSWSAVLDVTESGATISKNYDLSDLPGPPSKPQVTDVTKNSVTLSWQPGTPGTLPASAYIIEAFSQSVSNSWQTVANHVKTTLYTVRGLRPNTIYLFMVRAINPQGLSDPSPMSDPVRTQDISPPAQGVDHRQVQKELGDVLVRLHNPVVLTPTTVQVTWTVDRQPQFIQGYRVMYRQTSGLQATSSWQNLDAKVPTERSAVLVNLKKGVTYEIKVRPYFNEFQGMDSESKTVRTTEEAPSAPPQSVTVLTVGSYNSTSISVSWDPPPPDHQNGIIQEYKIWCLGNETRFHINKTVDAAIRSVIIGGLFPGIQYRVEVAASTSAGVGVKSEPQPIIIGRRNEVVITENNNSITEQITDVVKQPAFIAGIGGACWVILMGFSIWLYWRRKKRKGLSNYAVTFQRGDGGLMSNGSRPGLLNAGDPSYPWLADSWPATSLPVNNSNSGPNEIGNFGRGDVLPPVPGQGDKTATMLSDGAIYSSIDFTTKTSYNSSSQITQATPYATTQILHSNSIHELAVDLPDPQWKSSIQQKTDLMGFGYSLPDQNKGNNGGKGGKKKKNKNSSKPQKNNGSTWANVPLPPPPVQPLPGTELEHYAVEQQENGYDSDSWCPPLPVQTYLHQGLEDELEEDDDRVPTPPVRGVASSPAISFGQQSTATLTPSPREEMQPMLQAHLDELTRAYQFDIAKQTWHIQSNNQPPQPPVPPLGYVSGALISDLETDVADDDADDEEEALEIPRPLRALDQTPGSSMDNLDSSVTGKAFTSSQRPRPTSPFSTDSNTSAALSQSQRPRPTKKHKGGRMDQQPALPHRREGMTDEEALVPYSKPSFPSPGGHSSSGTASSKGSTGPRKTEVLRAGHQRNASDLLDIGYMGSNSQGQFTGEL

B1: CDAB3 (scFv)
chain: DCGPPPDIPNARPILGRHSKFAEQSKVAYSCNNGFKQVPDKSNIVVCLENGQWSSHETFCEKSCVAPERLSFASLKKEYLNMNFFPVGTIVEYECRPGFRKQPPLPGKATCLEDLVWSPVAQFCKKKSCPNPKDLDNGHINIPTGILFGSEINFSCNPGYRLVGVSSTFCSVTGNTVDWDDEFPVCTEIHCPEPPKINNGIMRGESDSYTYSQVVTYSCDKGFILVGNASIYCTVSKSDVGQWSSPPPRCIEKSKVPTKKPTINVPSTGTPSTPQKPTTESVPNPGDQPTPQKPSTVKVSATQHVPVTKTTVRHPIRTSTDKGEPNTGGGGGSGGGGSGGGGSGGGGSEVQLVQSGAEVKKPGASVKVSCKASGYTFTGYYMHWVRQAPGQGLEWMGWINPKNGDTEFPQKFQGRVTMTRDTSITTAYMDLSRLRSDDTAVYYCARESGDDAFDIWGQGTMVTVSSGGGGGSGGGGSGGGGSDIVMTQSPSSLSASVGDRVTITCRASQSISSYLNWYQQKPGKAPKLLIYAASSLQSGVPSRFSGSGSGTDFTLTISSLQPEDFATYYCQQSVGLFFGGGTKVEIKHHHHHH
notes: Fc-less construct with the same V domains as CDAB1; It was loaded on 'anti-Streptavidin' biosensors, and no biotinylation is described
As to B1, in the test with Mouse Robo2 [1], the Kd turned out to be 13.2 nM, the koff came out at 0.00291 s⁻¹ and the kon was determined as 221000 M⁻¹ s⁻¹.

B2: CDAB1 (antibody, human IgG1, kappa)
heavy: EVQLVQSGAEVKKPGASVKVSCKASGYTFTGYYMHWVRQAPGQGLEWMGWINPKNGDTEFPQKFQGRVTMTRDTSITTAYMDLSRLRSDDTAVYYCARESGDDAFDIWGQGTMVTVSSASTKGPSVFPLAPSSKSTSGGTAALGCLVKDYFPEPVTVSWNSGALTSGVHTFPAVLQSSGLYSLSSVVTVPSSSLGTQTYICNVNHKPSNTKVDKKVEPKSCDKTHTCPPCPAPEAAGAPSVFLFPPKPKDTLMISRTPEVTCVVVDVSHEDPEVKFNWYVDGVEVHNAKTKPREEQYNSTYRVVSVLTVLHQDWLNGKEYKCKVSNKALPAPIEKTISKAKGQPREPQVYTLPPSREEMTKNQVSLTCLVKGFYPSDIAVEWESNGQPENNYKTTPPVLDSDGSFFLYSKLTVDKSRWQQGNVFSCSVMHEALHNHYTQKSLSLSPGGGGGSDCGPPPDIPNARPILGRHSKFAEQSKVAYSCNNGFKQVPDKSNIVVCLENGQWSSHETFCEKSCVAPERLSFASLKKEYLNMNFFPVGTIVEYECRPGFRKQPPLPGKATCLEDLVWSPVAQFCKKKSCPNPKDLDNGHINIPTGILFGSEINFSCNPGYRLVGVSSTFCSVTGNTVDWDDEFPVCTEIHCPEPPKINNGIMRGESDSYTYSQVVTYSCDKGFILVGNASIYCTVSKSDVGQWSSPPPRCIEKSKVPTKKPTINVPSTGTPSTPQKPTTESVPNPGDQPTPQKPSTVKVSATQHVPVTKTTVRHPIRTSTDKGEPNTG
light: DIVMTQSPSSLSASVGDRVTITCRASQSISSYLNWYQQKPGKAPKLLIYAASSLQSGVPSRFSGSGSGTDFTLTISSLQPEDFATYYCQQSVGLFFGGGTKVEIKRTVAAPSVFIFPPSDEQLKSGTASVVCLLNNFYPREAKVQWKVDNALQSGNSQESVTEQDSKDSTYSLSSTLTLSKADYEKHKVYACEVTHQGLSSPVTKSFNRGEC
notes: Anti-ROBO2 tether in IgG1 format with mouse CD55 ECD fused to the C-terminus of the heavy chain; also called CDAB1-HC; CDAB1-LC
Regarding B2, the “tethered IC50(nM), inhibition of C5b-9a deposition (Hycult classical complement mouse assay, tethered format)” value with recROBO2 amounted to 1.5 nM. In the test with Mouse Robo2 [2], this molecule showed a Kd of 1.38 nM, a koff of 0.00129 s⁻¹ and a kon of 938000 M⁻¹ s⁻¹.

B3: CDAB6 (Fc fusion)
chain: DCGPPPDIPNARPILGRHSKFAEQSKVAYSCNNGFKQVPDKSNIVVCLENGQWSSHETFCEKSCVAPERLSFASLKKEYLNMNFFPVGTIVEYECRPGFRKQPPLPGKATCLEDLVWSPVAQFCKKKSCPNPKDLDNGHINIPTGILFGSEINFSCNPGYRLVGVSSTFCSVTGNTVDWDDEFPVCTEIHCPEPPKINNGIMRGESDSYTYSQVVTYSCDKGFILVGNASIYCTVSKSDVGQWSSPPPRCIEKSKVPTKKPTINVPSTGTPSTPQKPTTESVPNPGDQPTPQKPSTVKVSATQHVPVTKTTVRHPIRTSTDKGEPNTGGGGGSGGGGSGGGGSGGGGSDKTHTCPPCPAPEAAGAPSVFLFPPKPKDTLMISRTPEVTCVVVDVSHEDPEVKFNWYVDGVEVHNAKTKPREEQYNSTYRVVSVLTVLHQDWLNGKEYKCKVSNKALPAPIEKTISKAKGQPREPQVYTLPPSREEMTKNQVSLTCLVKGFYPSDIAVEWESNGQPENNYKTTPPVLDSDGSFFLYSKLTVDKSRWQQGNVFSCSVMHEALHNHYTQKSLSLSPGGGGGSGGGGSGGGGSGGGGSEVQLVQSGAEVKKPGASVKVSCKASGYTFTGYYMHWVRQAPGQGLEWMGWINPKNGDTEFPQKFQGRVTMTRDTSITTAYMDLSRLRSDDTAVYYCARESGDDAFDIWGQGTMVTVSSGGGGGSGGGGSGGGGSDIVMTQSPSSLSASVGDRVTITCRASQSISSYLNWYQQKPGKAPKLLIYAASSLQSGVPSRFSGSGSGTDFTLTISSLQPEDFATYYCQQSVGLFFGGGTKVEIK
notes: Same V domains as CDAB1
Take B3: in the test with Mouse Robo2 [3], the Kd was determined as 7.13 nM, the koff is 0.00294 s⁻¹ and the kon is 412000 M⁻¹ s⁻¹.
